For test [1], the target named is T1, human VLA-1 α1 subunit (CD49a), full-length, on transfected CHO cells (human, UniProt P56199 29-1179). The test is described as follows: cell-based or functional assay.
Test [2] has as its target T1, human VLA-1 α1 subunit (CD49a), …. The test is described as follows: cell-based or functional assay. This is another data set of the same source.
Test [3] concerns the target T2, human CD49a I domain S162H (human, UniProt P56199 151-364, S162H).
T2 construct: domain: I domain; not shown: myc and His tags
The test is described as follows: ELISA on secreted mutant I domain. On the technique in general: ELISA stands for enzyme-linked immunosorbent assay.

For test [4], the target named is T3, human CD49a I domain I11F (human, UniProt P56199 151-364, I11F).
T3 construct: domain: I domain; not shown: myc and His tags
The test is described as follows: ELISA on secreted mutant I domain.

Test [5] deals with T4, human CD49a I domain E48K (human, UniProt P56199 151-364, E48K).
T4 construct: domain: I domain; not shown: myc and His tags
The test is described as follows: ELISA on secreted mutant I domain.

For test [6], the target named is T5, human CD49a I domain K88N (human, UniProt P56199 151-364, K88N).
T5 construct: domain: I domain; not shown: myc and His tags
The test is described as follows: ELISA on secreted mutant I domain.

Test [7] concerns the target T6, human CD49a I domain E66A (human, UniProt P56199 151-364, E66A).
T6 construct: domain: I domain; not shown: myc and His tags
The test is described as follows: ELISA on secreted mutant I domain.

In test [8] the target is T7, human CD49a I domain with residues 91-96 VQRGGR replaced by mouse GRRGGL (human, UniProt P56199 151-364, V91G; Q92R; R96L).
T7 construct: domain: I domain; also called V91G, Q92R, R96L; not shown: myc and His tags
The test is described as follows: ELISA on secreted mutant I domain.

The target in test [9] is T8, human CD49a I domain K142Q (human, UniProt P56199 151-364, K142Q).
T8 construct: domain: I domain; text prints KI42Q once; not shown: myc and His tags
The test is described as follows: ELISA on secreted mutant I domain.

The target in test [10] is T9, human CD49a I domain T204A (human, UniProt P56199 151-364, T204A).
T9 construct: domain: I domain; not shown: myc and His tags
The test is described as follows: ELISA on secreted mutant I domain.

In test [11] the target is T10, human VLA-1 (alpha 1/beta 1, CD49a/CD29) on IL-2 stimulated human PBMC / T cells (human, UniProt P56199 29-1179; P05556 21-798). The test is described as follows: cell-based or functional assay.
Test [12] concerns the target T10, human VLA-1 (alpha 1/beta 1, …). The test is described as follows: cell-based or functional assay. The source holds these as a separate data set.
Test [13] has the same target. The test is described as follows: cell-based or functional assay. The source holds these as a separate data set.

B1: 6.44 (antibody, V domains shown)
VH: QVQLQESGPGLVKPSQTLSLICTVSGGSISRGDSYWSWIRQHPGKGLEWIGYIYYSGSTFYNPSLKSRVTISVDTSKNQFSLKLSSVTAADTAVYYCAREDRIFGVVDYWGQGTLVTVSS
VL: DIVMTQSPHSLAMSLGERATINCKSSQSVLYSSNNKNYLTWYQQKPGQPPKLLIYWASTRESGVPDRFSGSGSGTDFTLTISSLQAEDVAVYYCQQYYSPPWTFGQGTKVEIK
notes: human IgG2 or IgG4
As for B1, the “relative inhibition at an optimal concentration, CHO-VLA-1 adhesion to collagen IV” value in test [1] is above 80%. Besides, the “IC50, adhesion of CHO-VLA-1 cells to collagen IV” value (from here on “IC50, adhesion of CHO-VLA-1 cells”) in test [2] is 0.08 nM. The binding result is “binds” in test [3]; “binds” in test [4]; “binds” in [5]; “binds” in test [6]; “binds” in test [7]; “no binding” in test [8]. The binding result in [9] and in [10] was “binds” each time. In [11], the “% adhesion of IL-2 activated T cells to collagen IV vs no antibody, 10 µg/ml, +PMA” value turned out to be 23.7%. Moreover, in test [11], the “% adhesion of IL-2 activated T cells to collagen IV vs no antibody, 10 µg/ml, -PMA” value amounted to 49.2%. Further, the “% adhesion of T cells to collagen IV vs no antibody, 0.5 nM mAb, no PMA” value in test [12] worked out at 70.7%. Further, the “% adhesion of T cells to collagen IV vs no antibody, 5 nM mAb, no PMA” value in test [12] is 25%. The “% adhesion of T cells to collagen IV vs no antibody, 0.5 nM mAb, 10 ng/ml PMA” value in [13] came out at 89.8%. Besides, the “% adhesion of T cells to collagen IV vs no antibody, 5 nM mAb, 10 ng/ml PMA” value in test [13] was 56.6%.

B2: 7.7 (antibody, V domains shown)
VH: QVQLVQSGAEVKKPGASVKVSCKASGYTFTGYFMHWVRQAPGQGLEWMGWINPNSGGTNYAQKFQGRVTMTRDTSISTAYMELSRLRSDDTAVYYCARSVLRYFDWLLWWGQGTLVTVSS
VL: DIVMTQSPESLAVSLGERTTINCKSSQSVLFSSNNENHLAWYQQKPGQPPKLLIYWASTRESGVPDRFSGSGSGTDFTLTISSLQAEDVAVYYCQQYYITPCSFGQGTKLEIK
notes: human IgG2 or IgG4
Turning to B2, the “IC50, adhesion of CHO-VLA-1 cells” value in test [2] is 0.59 nM. For the same molecule, the binding result was “binds” in test [3]; “binds” in test [4]; “no binding” in test [5]; “binds” in [6]; “binds” in test [7]; “binds” in test [8]. The binding result in [9] and in [10] was “binds” in each case. The “% adhesion of IL-2 activated T cells to collagen IV vs no antibody, 10 µg/ml, +PMA” value in test [11] is 27.4%. Also, in test [11], the “% adhesion of IL-2 activated T cells to collagen IV vs no antibody, 10 µg/ml, -PMA” value was 40.1%. Moreover, the “% adhesion of T cells to collagen IV vs no antibody, 0.5 nM mAb, no PMA” value in [12] amounted to 113%. Further, the “% adhesion of T cells to collagen IV vs no antibody, 5 nM mAb, no PMA” value in test [12] amounted to 66.5%. Besides, the “% adhesion of T cells to collagen IV vs no antibody, 0.5 nM mAb, 10 ng/ml PMA” value in [13] stood at 96.6%. For the same molecule, the “% adhesion of T cells to collagen IV vs no antibody, 5 nM mAb, 10 ng/ml PMA” value in test [13] came to 91.9%.

B3: 2.19 (antibody, V domains shown)
VH: QVQLQESGPGLVKPSETLSLTCTVSGDSISSYYWSWIRQPPGKGLEWIGYVYYSGSTNYNPSLKSRVTMSVDTSKNQFSLKLSSVTAADTAVYYCARDLELYAFDIWGQGTMVTVSS
VL: EIVLTQFPGTLSLSPGERVTLSCRASQSVSSTYVVWYQQKPGQAPRLLIYGASSRATGIPDRFSGSGSGTDFTLTISRLEPEDFAVYYCQQHGSSPWTFGQGTKVEIK
notes: human IgG2 or IgG4
B3: the “relative inhibition at an optimal concentration, CHO-VLA-1 adhesion to collagen IV” value in test [1] is above 80%. For the same molecule, in test [2], the “IC50, adhesion of CHO-VLA-1 cells” value was 0.47 nM. Also, the binding result is reported as “binds” in [3]; “binds” in [4]; “binds” in test [5]; “binds” in test [6]; “no binding” in test [7]; “no binding” in [8]. Besides, the binding result in [9] and in test [10] was “binds” in each case.

The values are drawn from patent publication US20060286112A1 (published 2006).
